The data set “gel filtration” deals with the molecule itself. The experiment in a line: gel filtration.
Data set [1] deals with the molecule itself. The experiment in a line: gel filtration and in vitro cross-linking of the purified domain.

Two proteins from patent publication US20030207791A1 (published 2003) can be followed below.

B1: AML1-ETO (other, UniProt Q01196 1-177, looked up)
chain: MRIPVDASTSRRFTPPSTALSPGKMSEALPLGAPDAGAALAGKLRSGDRSMVEVLADHPGELVRTDSPNFLCSVLPTHWRCNKTLPIAFKVVALGDVPDGTLVTVMAGNDENYSAELRNATAAMKNQVARFNDLRFVGRSGRGKSFTLTITVFTNPPQVATYHRAIKITVDGPREPRDRTEKHSTMPDSPVDVKTQSRLTPPTMPPPPTTQGAPRTSSFTPTTLTNGTSHSPTALNGAPSPPNGFSNGPSSSSSSSLANQQLPPACGARQLSKLKRFLTTLQQFGNDISPEIGERVRTLVLGLVNSTLTIEEFHSKLQEATNFPLRPFVIPFLKANLPLLQRELLHCARLAKQNPAQYLAQHEQLLLDASTTSPVDSSELLLDVNENGKRRTPDRTKENGFDREPLHSEHPSKRPCTISPGQRYSPNNGLSYQPNGLPHPTPPPPQHYRLDDMAIAHHYRDSYRHPSHRDLRDRNRPMGLHGTRQEEMIDHRLTDREWAEEWKHLDHLLNCIMDMVEKTRRSLTVLRRCQEADREELNYWIRRYSDAEDLKKGGGSSSSHSRQQSPVNPDPVALDAHREFLHRPASGYVPEEIWKKAEEAVNEVKRQAMTELQKAVSEAERKAHDMITTERAKMERTVAEAKRQAAEDALAVINQQEDSSESCWNCGRKASETCSGCNTARYCGSFCQHKDWEKHHHICGQTLQAQQQGDTPAVSSSVTPNSGAGSPMDTPPAATPRSTTPGTPSTIETTPR
notes: The plasmid list names pcDNA3-myc-AML1-ETO; Also made in bacteria as an MBP fusion, MBP removed by factor Xa; also called myc-AML1-ETO
Turning to B1, the binding result in “gel filtration” was “binds”.

B2: isolated coiled coil domain of PML (other)
chain: SELKCDISAEIQQRQEELDAMTQALQALQEQDSAEGAVHAQMHAAVGQLGRARAETEELIRERVRQVVAHVRAQERELLEAVDARYQRDYEEMASRLGRLDAVLQRIRTGSALVQRMKCYASDQEVLDMHGFLRQALCRLR
notes: Expressed in BL21 as a GST fusion and freed by site-specific cleavage; also called CC; CC domain of PML
B2: in data set [1], the binding result is given as “binds”.
